Reference: US20190218308A1 (INNATE PHARMA, published 2019)
Substitutions are numbered along the chain they refer to.

Assays:
[1] = target: T1, human CD39 (NTPDase1, ENTPD1), membrane-bound, on cells (human, UniProt P49961 1-510); assay: flow cytometry on Ramos lymphoma cells, second set of experiments
T1 construct: Expressed on CHO cells, Hek-293T cells (wild type) or endogenous on Ramos cells; also called huCD39; CHO-huCD39
T1 sequence: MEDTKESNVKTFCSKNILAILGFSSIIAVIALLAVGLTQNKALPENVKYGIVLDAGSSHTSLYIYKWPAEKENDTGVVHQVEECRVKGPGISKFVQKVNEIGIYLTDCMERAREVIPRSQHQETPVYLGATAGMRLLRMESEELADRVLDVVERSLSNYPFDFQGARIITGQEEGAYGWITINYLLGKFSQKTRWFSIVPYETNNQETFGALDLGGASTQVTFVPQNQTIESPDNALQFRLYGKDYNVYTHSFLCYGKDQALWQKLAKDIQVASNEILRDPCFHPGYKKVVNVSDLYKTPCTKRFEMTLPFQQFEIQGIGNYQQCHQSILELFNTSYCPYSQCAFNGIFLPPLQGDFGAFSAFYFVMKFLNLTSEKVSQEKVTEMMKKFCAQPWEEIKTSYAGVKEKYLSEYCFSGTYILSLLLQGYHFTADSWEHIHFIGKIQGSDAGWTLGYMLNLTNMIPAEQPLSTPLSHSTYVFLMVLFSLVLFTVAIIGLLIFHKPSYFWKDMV
Protocol: Cells were incubated with various concentration of unlabeled anti-CD39 antibody from 30 μg/ml to 5×10⁻⁴ μg/ml, for 30 minutes at 4° C. After washes, cells were incubated with Goat anti-mouse H+L labeled secondary antibody for 30 min at 4° C.

[2] = target: T2, Human CD39-L3, also known as NTPDase3 or ENTPD3 (human, UniProt O75355 44-485, limits assumed); assay: ELISA on coated recombinant human CD39-L3 (panel huCD39 L3)
T2 construct: Recombinant protein coated in ELISA
T2 sequence: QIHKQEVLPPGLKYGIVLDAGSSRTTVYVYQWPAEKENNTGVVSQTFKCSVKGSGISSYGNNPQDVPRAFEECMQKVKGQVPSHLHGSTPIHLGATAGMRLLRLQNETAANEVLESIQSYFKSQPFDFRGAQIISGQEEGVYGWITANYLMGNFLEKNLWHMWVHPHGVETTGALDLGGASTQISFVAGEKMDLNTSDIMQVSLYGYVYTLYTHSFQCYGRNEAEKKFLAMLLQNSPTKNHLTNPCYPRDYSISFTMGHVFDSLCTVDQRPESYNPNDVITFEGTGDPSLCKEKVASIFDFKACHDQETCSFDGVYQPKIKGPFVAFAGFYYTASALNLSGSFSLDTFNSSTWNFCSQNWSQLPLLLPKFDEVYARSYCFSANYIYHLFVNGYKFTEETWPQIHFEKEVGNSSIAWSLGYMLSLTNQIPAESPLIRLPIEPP
Protocol: Wells were washed in TBS Tween 20, and further saturated 2H at RT in TBS Blocking buffer. Dose range concentration of primary antibody was incubated in TBS blocking buffer for 2 h at RT. Wells were washed in TBS Tween 20. […] Optical density was measured on Enspire™ at OD=450.

CD39 mutant 15 = target: T3, CD39 mutant 15 (human, UniProt P49961 1-510); assay: flow cytometry, Hek-293T cells transfected with CD39 mutant 15 (panel M15), table under the panel; unstained (US) 8,98; antibody concentration not shown
T3 construct: Expressed on Hek-293T cells; also called M15
T3 chain: T1 sequence with K87A, E100A, D107A
Protocol: Mutants were transfected in Hek-293T cells, as shown in the table 1, using numbering of SEQ ID NO: 2. […] Mutant 19 includes substitutions at residues R138, M139 and E142.
Mutants were transfected in Hek-293T cells, as shown in the table 1, using numbering of SEQ ID NO: 2. Dose-ranges of test antibodies (10-2.5-0.625-0.1563-0.0391-0.0098-0.0024-0.0006 μg/ml) are tested on the 20 generated mutants by flow cytometry.

B1: antibody I-394 (antibody, human IgG1, kappa, V domains shown)
VH: EVQLQQSGPELVKPGASVKMSCKASGYTFTDYNMHWVKQSHGRTLEWIGYIVPLNGGSTFNQKFKGRATLTVNTSSRTAYMELRSLTSEDSAAYYCARGGTRFAYWGQGTLVTVSA
VL: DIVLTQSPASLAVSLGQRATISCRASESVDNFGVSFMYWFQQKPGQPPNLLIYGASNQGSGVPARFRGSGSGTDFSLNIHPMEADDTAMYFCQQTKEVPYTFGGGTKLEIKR
Question: Which EC50 [1] does the source give for B1 here?
Answer: 0.19 µg/mL

Question: Does B1 bind [2]?
Answer: no binding (tested: about 50 µg/ml)

Question: And the “Median : Comp-Alexa Fluor 647-A” value (CD39 mutant 15)?
Answer: 6360
